Laboratory results published in the Human Domainome abundance scans (Beltran et al. 2025).
± gives the uncertainty stated by the source.

test: abundance fitness (aPCA) (normalised: wild type 0, dead -1); higher = more abundant; growth selection in yeast, the domain comes from the species named; details: Homo sapiens

“DnaJ homolog subfamily B member 1 E19W, P25685” and “DnaJ homolog subfamily B member 1 E19Y, P25685” are within error of each other in abundance fitness: -1.25 ± 0.17 for the first, -1.06 ± 0.14 for the second.

“DnaJ homolog subfamily B member 1 E38A, P25685” and “DnaJ homolog subfamily B member 1 E38C, P25685” are within error of each other in abundance fitness: -0.29 ± 0.26 for the first, -0.027 ± 0.11 for the second.

“DnaJ homolog subfamily B member 1 E38D, P25685” and “DnaJ homolog subfamily B member 1 E38F, P25685” are within error of each other in abundance fitness: -0.287 ± 0.24 for the first, -0.127 ± 0.12 for the second.

“DnaJ homolog subfamily B member 1 E38G, P25685” and “DnaJ homolog subfamily B member 1 E38H, P25685” are within error of each other in abundance fitness: -0.068 ± 0.098 for the first, 0.017 ± 0.2 for the second.

“DnaJ homolog subfamily B member 1 E38I, P25685” and “DnaJ homolog subfamily B member 1 E38L, P25685” are within error of each other in abundance fitness: -0.034 ± 0.15 for the first, -0.099 ± 0.061 for the second.

“DnaJ homolog subfamily B member 1 E38M, P25685” and “DnaJ homolog subfamily B member 1 E38N, P25685” are within error of each other in abundance fitness: -0.041 ± 0.1 for the first, -0.179 ± 0.2 for the second.

“DnaJ homolog subfamily B member 1 E38P, P25685” and “DnaJ homolog subfamily B member 1 E38R, P25685” are within error of each other in abundance fitness: -0.342 ± 0.14 for the first, -0.172 ± 0.091 for the second.

“DnaJ homolog subfamily B member 1 E38S, P25685” and “DnaJ homolog subfamily B member 1 E38T, P25685” are within error of each other in abundance fitness: -0.106 ± 0.083 for the first, -0.041 ± 0.089 for the second.

“DnaJ homolog subfamily B member 1 E38V, P25685” and “DnaJ homolog subfamily B member 1 E38W, P25685” are within error of each other in abundance fitness: -0.006 ± 0.096 for the first, -0.019 ± 0.081 for the second.

“DnaJ homolog subfamily B member 1 E42A, P25685” and “DnaJ homolog subfamily B member 1 E42C, P25685” are within error of each other in abundance fitness: 0.002 ± 0.077 for the first, -0.048 ± 0.097 for the second.

Compared with “DnaJ homolog subfamily B member 1 E42D, P25685”, “DnaJ homolog subfamily B member 1 E42F, P25685” is lower in abundance fitness: 0.116 ± 0.11 for the first, -0.171 ± 0.1 for the second.

“DnaJ homolog subfamily B member 1 E42G, P25685” and “DnaJ homolog subfamily B member 1 E42H, P25685” are within error of each other in abundance fitness: -0.153 ± 0.097 for the first, -0.003 ± 0.098 for the second.

Going from “DnaJ homolog subfamily B member 1 E42I, P25685” to “DnaJ homolog subfamily B member 1 E42K, P25685”, the abundance fitness rises from -0.105 ± 0.12 to 0.301 ± 0.14.

“DnaJ homolog subfamily B member 1 E42L, P25685” and “DnaJ homolog subfamily B member 1 E42M, P25685” are within error of each other in abundance fitness: 0.086 ± 0.055 for the first, 0.038 ± 0.079 for the second.

“DnaJ homolog subfamily B member 1 E42N, P25685” and “DnaJ homolog subfamily B member 1 E42P, P25685” are within error of each other in abundance fitness: 0.027 ± 0.13 for the first, 0.028 ± 0.087 for the second.

First: DnaJ homolog subfamily B member 1 E42Q, P25685
Second: DnaJ homolog subfamily B member 1 E42R, P25685
The abundance fitness of the first is lower: -0.157 ± 0.12 for the first, 0.024 ± 0.058 for the second.

“DnaJ homolog subfamily B member 1 E42S, P25685” and “DnaJ homolog subfamily B member 1 E42T, P25685” are within error of each other in abundance fitness: -0.016 ± 0.065 for the first, -0.052 ± 0.093 for the second.

“DnaJ homolog subfamily B member 1 E42W, P25685” and “DnaJ homolog subfamily B member 1 E42Y, P25685” are within error of each other in abundance fitness: -0.122 ± 0.11 for the first, -0.188 ± 0.1 for the second.

“DnaJ homolog subfamily B member 1 E43A, P25685” and “DnaJ homolog subfamily B member 1 E43C, P25685” are within error of each other in abundance fitness: 0.025 ± 0.13 for the first, -0.07 ± 0.2 for the second.

“DnaJ homolog subfamily B member 1 E43D, P25685” and “DnaJ homolog subfamily B member 1 E43F, P25685” are within error of each other in abundance fitness: -0.153 ± 0.14 for the first, -0.093 ± 0.19 for the second.

“DnaJ homolog subfamily B member 1 E43G, P25685” and “DnaJ homolog subfamily B member 1 E43I, P25685” are within error of each other in abundance fitness: 0.009 ± 0.074 for the first, 0.109 ± 0.12 for the second.

“DnaJ homolog subfamily B member 1 E43K, P25685” and “DnaJ homolog subfamily B member 1 E43L, P25685” are within error of each other in abundance fitness: 0.156 ± 0.1 for the first, 0.105 ± 0.066 for the second.

“DnaJ homolog subfamily B member 1 E43N, P25685” and “DnaJ homolog subfamily B member 1 E43P, P25685” are within error of each other in abundance fitness: -0.003 ± 0.21 for the first, -0.177 ± 0.13 for the second.

“DnaJ homolog subfamily B member 1 E43Q, P25685” and “DnaJ homolog subfamily B member 1 E43R, P25685” are within error of each other in abundance fitness: 0.086 ± 0.1 for the first, 0.11 ± 0.051 for the second.

“DnaJ homolog subfamily B member 1 E43S, P25685” and “DnaJ homolog subfamily B member 1 E43T, P25685” are within error of each other in abundance fitness: -0.014 ± 0.092 for the first, -0.109 ± 0.12 for the second.

First: DnaJ homolog subfamily B member 1 E43V, P25685
Second: DnaJ homolog subfamily B member 1 E43W, P25685
The abundance fitness of the first is higher: 0.112 ± 0.062 for the first, -0.043 ± 0.069 for the second.

“DnaJ homolog subfamily B member 1 E43Y, P25685” and “DnaJ homolog subfamily B member 1 E47A, P25685” are within error of each other in abundance fitness: 0.196 ± 0.32 for the first, 0.021 ± 0.088 for the second.

“DnaJ homolog subfamily B member 1 E47C, P25685” and “DnaJ homolog subfamily B member 1 E47D, P25685” are within error of each other in abundance fitness: -0.218 ± 0.095 for the first, -0.073 ± 0.13 for the second.

First: DnaJ homolog subfamily B member 1 E47F, P25685
Second: DnaJ homolog subfamily B member 1 E47G, P25685
The abundance fitness of the first is lower: -0.277 ± 0.098 for the first, -0.054 ± 0.076 for the second.

First: DnaJ homolog subfamily B member 1 E47H, P25685
Second: DnaJ homolog subfamily B member 1 E47K, P25685
The abundance fitness of the first is higher: -0.009 ± 0.11 for the first, -0.43 ± 0.12 for the second.

Going from “DnaJ homolog subfamily B member 1 E47M, P25685” to “DnaJ homolog subfamily B member 1 E47N, P25685”, the abundance fitness rises from -0.186 ± 0.096 to 0.333 ± 0.21.

“DnaJ homolog subfamily B member 1 E47P, P25685” and “DnaJ homolog subfamily B member 1 E47Q, P25685” are within error of each other in abundance fitness: -0.212 ± 0.088 for the first, -0.153 ± 0.1 for the second.

“DnaJ homolog subfamily B member 1 E47R, P25685” and “DnaJ homolog subfamily B member 1 E47S, P25685” are within error of each other in abundance fitness: -0.071 ± 0.068 for the first, -0.099 ± 0.072 for the second.

Compared with “DnaJ homolog subfamily B member 1 E47T, P25685”, “DnaJ homolog subfamily B member 1 E47V, P25685” is lower in abundance fitness: -0.118 ± 0.068 for the first, -0.295 ± 0.088 for the second.

“DnaJ homolog subfamily B member 1 E50A, P25685” and “DnaJ homolog subfamily B member 1 E50C, P25685” are within error of each other in abundance fitness: -0.241 ± 0.11 for the first, -0.311 ± 0.095 for the second.

Compared with “DnaJ homolog subfamily B member 1 E50D, P25685”, “DnaJ homolog subfamily B member 1 E50F, P25685” is lower in abundance fitness: -0.074 ± 0.087 for the first, -0.612 ± 0.19 for the second.

“DnaJ homolog subfamily B member 1 E50G, P25685” and “DnaJ homolog subfamily B member 1 E50H, P25685” are within error of each other in abundance fitness: -0.326 ± 0.13 for the first, -0.222 ± 0.17 for the second.

“DnaJ homolog subfamily B member 1 E50I, P25685” and “DnaJ homolog subfamily B member 1 E50L, P25685” are within error of each other in abundance fitness: -0.011 ± 0.1 for the first, -0.026 ± 0.052 for the second.

“DnaJ homolog subfamily B member 1 E50M, P25685” and “DnaJ homolog subfamily B member 1 E50N, P25685” are within error of each other in abundance fitness: -0.181 ± 0.12 for the first, -0.328 ± 0.1 for the second.

Compared with “DnaJ homolog subfamily B member 1 E50P, P25685”, “DnaJ homolog subfamily B member 1 E50Q, P25685” is higher in abundance fitness: -0.885 ± 0.18 for the first, -0.177 ± 0.082 for the second.

Going from “DnaJ homolog subfamily B member 1 E50R, P25685” to “DnaJ homolog subfamily B member 1 E50S, P25685”, the abundance fitness falls from -0.036 ± 0.062 to -0.211 ± 0.066.

Compared with “DnaJ homolog subfamily B member 1 E50V, P25685”, “DnaJ homolog subfamily B member 1 E50W, P25685” is lower in abundance fitness: -0.085 ± 0.078 for the first, -0.34 ± 0.11 for the second.

Compared with “DnaJ homolog subfamily B member 1 E50Y, P25685”, “DnaJ homolog subfamily B member 1 E62C, P25685” is lower in abundance fitness: -0.096 ± 0.12 for the first, -0.361 ± 0.14 for the second.

“DnaJ homolog subfamily B member 1 E62D, P25685” and “DnaJ homolog subfamily B member 1 E62F, P25685” are within error of each other in abundance fitness: -0.31 ± 0.13 for the first, -0.519 ± 0.12 for the second.

“DnaJ homolog subfamily B member 1 E62G, P25685” and “DnaJ homolog subfamily B member 1 E62H, P25685” are within error of each other in abundance fitness: -0.272 ± 0.15 for the first, -0.351 ± 0.081 for the second.

“DnaJ homolog subfamily B member 1 E62I, P25685” and “DnaJ homolog subfamily B member 1 E62M, P25685” are within error of each other in abundance fitness: -0.378 ± 0.14 for the first, -0.32 ± 0.11 for the second.

First: DnaJ homolog subfamily B member 1 E62N, P25685
Second: DnaJ homolog subfamily B member 1 E62P, P25685
The abundance fitness of the first is lower: -0.567 ± 0.28 for the first, -0.134 ± 0.079 for the second.

“DnaJ homolog subfamily B member 1 E62Q, P25685” and “DnaJ homolog subfamily B member 1 E62R, P25685” are within error of each other in abundance fitness: -0.353 ± 0.12 for the first, -0.344 ± 0.095 for the second.

“DnaJ homolog subfamily B member 1 E62S, P25685” and “DnaJ homolog subfamily B member 1 E62V, P25685” are within error of each other in abundance fitness: -0.212 ± 0.077 for the first, -0.218 ± 0.12 for the second.

“DnaJ homolog subfamily B member 1 E62W, P25685” and “DnaJ homolog subfamily B member 1 E62Y, P25685” are within error of each other in abundance fitness: -0.626 ± 0.096 for the first, -0.552 ± 0.22 for the second.

“DnaJ homolog subfamily B member 1 F45A, P25685” and “DnaJ homolog subfamily B member 1 F45C, P25685” are within error of each other in abundance fitness: -0.21 ± 0.076 for the first, -0.351 ± 0.12 for the second.

In the case of “DnaJ homolog subfamily B member 1 F45D, P25685”, the abundance fitness is reported as -0.352 ± 0.076.
